Measured values published in patent US20060292145A1 (JAPAN SCIENCE AND TECHNOLOGY, published 2006).

Biological target: T1, human interleukin-18 (human, UniProt Q14116 37-193)
T1 construct: Immobilised on plates in the ELISAs; also called human IL-18; IL-18
T1 sequence (looked up): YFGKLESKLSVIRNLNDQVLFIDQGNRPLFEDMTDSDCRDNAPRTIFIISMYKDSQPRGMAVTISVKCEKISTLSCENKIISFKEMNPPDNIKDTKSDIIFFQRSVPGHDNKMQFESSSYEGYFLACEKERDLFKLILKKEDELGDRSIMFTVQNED
Assay: phage ELISA, scFv-presenting phage on immobilised human IL-18 (HSA as comparison), anti-M13 detection, A405
Description: ELISA for screening separated clones was carried out by immobilizing human IL-18 on an ELISA plate. Specifically, 2 μg/ml of human IL-18 and 2.5 μg/ml of human serum albumin (HSA) were put in a 40 μL/well ELISA plate (Nunc), allowed to stand for 16 hours at 4° C., and then immobilized on the plate. For blocking, 400 μL/well of PBS solution containing 0.5% BSA, 0.5% gelatin, and 5% skim milk was put in the ELISA plate, and then allowed to stand for 2 hours at 4° C.
Next, into the ELISA plate, 40 μL/well of sample solution containing an scFV-presenting phage was poured, and the mixture was allowed to react. Thereafter, the sample solution was removed, and the product was washed 5 times by using a cleaning liquid. Subsequently, to the immobilized scFv phage, a biotin-labeled anti-M13 monoclonal antibody (Pharmacia biotech) was added, and the mixture was allowed to react with an alkaline phosphatase (AP)-labeled anti-mouse IgG antibody serving as a secondary antibody. The reaction liquid was washed 5 times by using a cleaning liquid.

binding result: binds
B1: human anti-human IL-18 scFv fragment h18-108 (scFv, V domains shown)
VH: QVQLVQSGAEVRRPGASVRVSCKASGYTFTSHYIHWVRQAPGQGLEWVAIINPSDGRTDYAQKFQGRVTVTRDTSASSVYMGISSLRSEDTAMYYCARTARGFSYATDWGQGTLVTVSS
VL: SYELTQPPSVSVSPGQTARITCSGDALPKKYAYWYQQKPGQAPVLVIYKDSERPSGIPERFSGSSSGTTVTLTISGVQAEDEADYYCQSADSSGTYVVFGGGTQLTVL
notes: Expressed in E. coli from pCANTAB5E and purified on anti-E tag antibody; By gel filtration 90% monomer, 10% dimer
